Data as given in US20260166140A1, “Combinations Involving Epidermal Growth Factor Receptor Tyrosine Kinase Inhibitors For the Treatment of Cancer” (AstraZeneca AB, priority 2022, published 2026).
Numbering of substitutions follows the chain as printed.

Columns and labels:
[1] = target: T1, Semaphorin 3a (UniProt Q14563 21-771, limits assumed); test: ELISA: antigen coated at 1 ug/mL, antibody dilution series, goat anti-human Fab-HRP, A450; panel Human Sema3a
T1 construct: also called Sema 3a
T1 sequence (looked up): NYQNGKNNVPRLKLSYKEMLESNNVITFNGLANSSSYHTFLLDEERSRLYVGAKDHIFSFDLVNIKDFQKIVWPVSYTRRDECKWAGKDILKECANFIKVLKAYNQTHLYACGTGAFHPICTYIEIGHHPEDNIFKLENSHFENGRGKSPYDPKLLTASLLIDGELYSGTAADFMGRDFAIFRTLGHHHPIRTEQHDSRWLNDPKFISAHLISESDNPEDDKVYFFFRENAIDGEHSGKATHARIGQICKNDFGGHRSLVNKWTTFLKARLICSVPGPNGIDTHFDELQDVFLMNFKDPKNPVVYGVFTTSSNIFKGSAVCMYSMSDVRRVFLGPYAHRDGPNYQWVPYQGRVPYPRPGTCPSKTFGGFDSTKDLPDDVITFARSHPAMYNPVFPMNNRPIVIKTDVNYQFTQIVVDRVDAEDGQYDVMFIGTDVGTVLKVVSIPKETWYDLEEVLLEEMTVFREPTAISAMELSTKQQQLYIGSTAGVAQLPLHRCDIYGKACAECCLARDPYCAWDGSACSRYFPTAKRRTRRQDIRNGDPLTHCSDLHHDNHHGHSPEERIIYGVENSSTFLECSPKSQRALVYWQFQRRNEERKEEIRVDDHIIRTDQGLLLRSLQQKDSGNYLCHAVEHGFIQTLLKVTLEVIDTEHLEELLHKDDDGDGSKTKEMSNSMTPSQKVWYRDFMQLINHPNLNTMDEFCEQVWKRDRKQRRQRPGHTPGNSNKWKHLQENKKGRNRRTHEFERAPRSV

[2] = target: T2, HER2 (UniProt P04626 23-652, limits assumed); test: ELISA: antigen coated at 1 ug/mL, antibody dilution series, goat anti-human Fab-HRP, A450; panel Human HER2
T2 construct: also called EGFR HER family protein HER2

[3] = target: Mouse cMET (recombinant) (mouse, UniProt P16056 25-929, limits assumed); test: ELISA: antigen coated at 1 ug/mL, antibody dilution series, goat anti-human Fab-HRP, A450; panel Mouse cMET
[4] = test system: Cynomolgus monkey EGFR; test: ELISA species cross reactivity; format: binding
Method: (§1) Specificity for EGFR and cMET species paralogs and closely related family members was determined by ELISA. Briefly, antigen solutions were prepared in PBS at 1 μg/mL and 50 microliters was coated onto half area ELISA assay plates. Plates were washed and blocked with 1% BSA in PBS containing 0.005% Tween-20 (PBS-T) for one hour at room temperature. The wells were washed 4 times in PBS-T. As set out in FIG. 3, the primary antibodies used where: R374 (a non-binding IgG1 isotype control antibody), B09 (anti-cMET antibody), QD6 (anti-EGFR antibody), RAA22 (anti-EGFR antibody), QD6/B09 (bispecific EGFR/c-MET DuetMAb), RAA22/B09 (bispecific EGFR/c-MET DuetMAb), PaniX (anti-EGFR antibody), MetMab (anti-cMET antibody) and Mab11311 (anti-HER4 antibody). Wells were incubated with 50 microliters of the indicated primary antibodies diluted in PBS-T in a 1:3 dilution series, starting at 10 μg/mL and ending at 0.002 μg/mL, except for the HER4 binding mAb control, MAB1131, for which the series started at 1 μg/mL. The wells were washed 4 times in PBS-T, then 50 μl of goat anti-human Fab HRP-labeled secondary antibody, diluted 1:5000 in PBS-T, was added to each well and incubated for one hour at room temperature. […] 50 microliters of TMB stop solution was added to all wells and the absorbance was read at 450 nm on a SpectraMax M5 microplate reader. Data were analyzed in the SoftMax Pro 5 software and plotted using GraphPad Prism 7 graphing software.
(§2) To determine the species cross reactivity, ELISA assays were carried out as described above. […] There was no detectable binding of any of the antibodies to mouse cMET.

[5] = target: Human EGFR (Homo sapiens, UniProt P00533); test: ELISA species cross reactivity; format: binding; settings: antibody 10 to 0.002 μg/mL
Method: as §1, §2

[6] = target: T3, Mouse EGFR (Mus musculus, UniProt Q01279); test: ELISA species cross reactivity; format: binding
T3 construct: purchased SinoBiological 51091-M08H
Method: as §1, §2

[7] = test system: H1975 cells; test: Internalization of AF647-labeled antibodies, live cell confocal fluorescence microscopy; format: cell-based; settings: for internalization half-times: images every 5 min
Method: Internalization kinetics of AlexaFluor647 (AF647) primary-labeled DuetMabs: RAA22/B09 and QD6/B09 antibodies was assessed in vitro using the EGFR and c-MET expressing cell line, H1975. Each antibody was pre-bound to cells and antibody translocation from cell surface to cytoplasm was then monitored using live cell confocal fluorescence microscopy. Both antibodies localized primarily on the cell surface before (T=0) subjecting to internalization conditions and were translocated to the cytoplasm area after 1 hour (data not shown). Kinetic images were taken every 5 min over the time course of internalization and were processed using a quantitative algorithm to determine internalization kinetic constants and half-times.
To evaluate the mode of antibody internalization and to investigate contribution of each arm to overall internalization of the DuetMabs, we evaluated internalization of single-arm specific control antibody molecules, QD6/IgG and B09/IgG, against duet QD6/B09, and RAA22/IgG and B09/IgG against duet RAA22/B09 in H1975 cells, which express both EGFR and c-MET. Since only one arm is specific for the target receptor, the control antibody can only internalize via one receptor eliminating dual receptor targeting and cross-linking as mode of internalization.

[8] = target: T4, Mouse EGFR (recombinant, soluble monomeric) (mouse, UniProt Q01279 25-647); test: SPR, Biacore T200, antibody captured on anti-human IgG, soluble monomeric antigen as analyte, 25 C
T4 construct: also called murine EGFR

[9] = target: T5, Cynomolgus monkey cMET (recombinant, soluble monomeric) (cynomolgus monkey, UniProt A0M8R7 25-932 (Papio anubis entry)); test: as above
T5 construct: also called cyno cMET

[10] = target: T6, HER3 (UniProt P21860 20-643, limits assumed); test: ELISA: antigen coated at 1 ug/mL, antibody dilution series, goat anti-human Fab-HRP, A450; panel Human HER3
T6 construct: also called EGFR HER family protein HER3

T5 sequence (A0M8R7 25-932 S170N/I621T): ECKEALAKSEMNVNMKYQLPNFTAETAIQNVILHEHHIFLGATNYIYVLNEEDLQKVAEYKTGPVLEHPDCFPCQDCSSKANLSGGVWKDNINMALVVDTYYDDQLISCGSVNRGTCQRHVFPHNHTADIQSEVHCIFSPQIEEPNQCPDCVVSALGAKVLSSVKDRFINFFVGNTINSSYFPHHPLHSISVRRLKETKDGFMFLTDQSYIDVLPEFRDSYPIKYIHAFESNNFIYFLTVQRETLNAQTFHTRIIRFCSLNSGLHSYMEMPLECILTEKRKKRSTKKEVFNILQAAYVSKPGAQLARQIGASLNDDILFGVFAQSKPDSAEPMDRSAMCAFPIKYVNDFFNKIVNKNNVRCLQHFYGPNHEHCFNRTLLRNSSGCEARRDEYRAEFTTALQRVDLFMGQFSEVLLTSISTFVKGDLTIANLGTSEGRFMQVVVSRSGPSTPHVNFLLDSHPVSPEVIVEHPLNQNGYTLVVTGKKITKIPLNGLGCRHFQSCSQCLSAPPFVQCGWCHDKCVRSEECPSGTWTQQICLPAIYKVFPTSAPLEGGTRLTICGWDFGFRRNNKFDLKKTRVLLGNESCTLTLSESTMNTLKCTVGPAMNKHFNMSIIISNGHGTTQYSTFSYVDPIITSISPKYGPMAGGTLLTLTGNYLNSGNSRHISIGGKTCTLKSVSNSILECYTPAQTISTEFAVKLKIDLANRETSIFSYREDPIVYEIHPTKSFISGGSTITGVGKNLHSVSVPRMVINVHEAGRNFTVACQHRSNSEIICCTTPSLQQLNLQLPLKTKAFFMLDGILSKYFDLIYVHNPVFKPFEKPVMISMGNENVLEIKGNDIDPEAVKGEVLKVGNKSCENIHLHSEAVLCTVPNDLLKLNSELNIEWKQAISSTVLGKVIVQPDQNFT
Chain of Mouse cMET (recombinant) (P16056 25-929 limits assumed): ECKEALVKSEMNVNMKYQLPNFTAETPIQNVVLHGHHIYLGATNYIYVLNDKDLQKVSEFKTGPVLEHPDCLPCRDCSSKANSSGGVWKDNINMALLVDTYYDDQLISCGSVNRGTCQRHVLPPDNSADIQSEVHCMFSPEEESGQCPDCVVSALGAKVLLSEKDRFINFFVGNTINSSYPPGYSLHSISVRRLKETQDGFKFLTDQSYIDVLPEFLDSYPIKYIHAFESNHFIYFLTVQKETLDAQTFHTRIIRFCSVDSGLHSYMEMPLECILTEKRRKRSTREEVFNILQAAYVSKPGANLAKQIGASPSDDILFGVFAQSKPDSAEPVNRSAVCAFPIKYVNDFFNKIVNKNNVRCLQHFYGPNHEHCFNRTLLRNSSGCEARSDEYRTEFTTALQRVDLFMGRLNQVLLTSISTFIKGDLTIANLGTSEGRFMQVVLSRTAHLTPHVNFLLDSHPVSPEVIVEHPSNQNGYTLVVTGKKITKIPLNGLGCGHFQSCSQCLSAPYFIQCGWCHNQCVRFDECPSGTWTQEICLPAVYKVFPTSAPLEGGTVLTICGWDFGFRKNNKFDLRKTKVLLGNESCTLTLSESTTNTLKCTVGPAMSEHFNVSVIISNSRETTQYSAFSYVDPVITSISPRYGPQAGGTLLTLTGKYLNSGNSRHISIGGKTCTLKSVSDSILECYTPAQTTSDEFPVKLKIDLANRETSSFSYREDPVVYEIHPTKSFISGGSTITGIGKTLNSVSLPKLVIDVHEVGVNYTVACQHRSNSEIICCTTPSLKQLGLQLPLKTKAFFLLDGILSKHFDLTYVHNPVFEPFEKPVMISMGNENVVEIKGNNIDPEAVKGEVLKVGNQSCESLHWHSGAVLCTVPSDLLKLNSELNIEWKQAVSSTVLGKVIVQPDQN

B1: RAA22/B09-57 DuetMab (bispecific antibody, human IgG1, kappa, lambda)
heavy 1: QVQLVQSGAEVKKPGSSVKVSCKASGGTFSDNDFSWVRQAPGQGLEWMGAIVAVFRTETYAQKFQDRVKITADISTRTTYMELSSLRSEDTAVYYCARRLMSAISGPGAPLLMWGQGTLVTVSSASTKGPSVFPLAPSSKSTSGGTAALGCLVKDYFPEPVTVSWNSGALTSGVHTFPAVLQSSGLYSLSSVVTVPSSSLGTQTYICNVNHKPSNTKVDKRVEPKSCDKTHTCPPCPAPELLGGPSCVFLFPPKPKDTLMISRTPEVTCVVVDVSHEDPEVKFNWYVDGVEVHNAKTKPREEQYNSTYRVVSVLTVLHQDWLNGKEYKCKVSNKALPAPIEKTISKAKGQPREPQVCTLPPSREEMTKNQVSLSCAVKGFYPSDIAVEWESNGQPENNYKTTPPVLDSDGSFFLVSKLTVDKSRWQQGNVFSCSVMHEALHNHYTQKSLSLSPGK
heavy 2: QVQLVQSGAEVKKPGASVKVSCKASGYTFTDYYIHWVRQATGQGLEWMGWMNPNSGNTGYAQKFQGRVTMTRDTSISTAYMELSSLRSEDTAVYYCARGQGYTHSWGQGTMVTVSSASTKGPSVCPLAPSSKSTSGGTAALGCLVKDYFPEPVTVSWNSGALTSGVHTFPAVLQSSGLYSLSSVVTVPSSSLGTQTYICNVNHKPSNTKVDKRVEPKSVDKTHTCPPCPAPELLGGPSCVFLFPPKPKDTLMISRTPEVTCVVVDVSHEDPEVKFNWYVDGVEVHNAKTKPREEQYNSTYRVVSVLTVLHQDWLNGKEYKCKVSNKALPAPIEKTISKAKGQPREPQVYTLPPCREEMTKNQVSLWCLVKGFYPSDIAVEWESNGQPENNYKTTPPVLDSDGSFFLYSKLTVDKSRWQQGNVFSCSVMHEALHNHYTQKSLSLSPG
light 1: QSALTQPRSVSGSPGQSVTISCTGTSSDVGGYNYVSWYQQHPGKAPKLMIYDVSKRPSGVPDRFSGSKSGNTASLTISGLQAEDEADYYCSSYTSSDTLEIFGGGTKLTVLGQPKAAPSVTLFPPSSEELQANKATLVCLISDFYPGAVTVAWKADSSPVKAGVETTTPSKQSNNKYAASSYLSLTPEQWKSHRSYSCQVTHEGSTVEKTVAPTECS
light 2: DIQMTQSPSTLSASVGDRVTITCRASEGIYHWLAWYQQKPGKAPKLLIYKASSLASGVPSRFSGSGSGTEFTLTISSLQPDDFATYYCQQYSNYPPTFGGGTKLEIKRTVAAPSVFIFPPCDEQLKSGTASVVCLLNNFYPREAKVQWKVDNALQSGNSQESVTEQDSKDSTYSLSSTLTLSKADYEKHKVYACEVTHQGLSSPVTKSFNRGEV
notes: also called monovalent bispecific EGFR/cMET DuetMAb RAA22/B09; RAA22/B09-Maia
binding result [1]: no binding (tested: 10 ug/ml)
binding result [2]: no binding (tested: 10 ug/ml)
binding result [3]: no binding (tested: 10 ug/ml)
ELISA binding [4]: still weaker binding
ELISA binding [5]: still weaker binding
ELISA binding [6]: nominal binding
binding at T=0 [7]: 3.5×10^6 MFI
cytoplasmic intensity values, fold higher than B09-IgG [7]: 4.70 fold
cytoplasmic intensity values, fold higher than RAA22-IgG [7]: 10.98 fold
internalization half-times [7]: 43.2 ± 15.5 min
Kd [8]: 575 nM
koff [8]: 0.0206 s⁻¹
kon [8]: 35400 M⁻¹ s⁻¹
Kd [9]: 2.2 nM
koff [9]: 0.00212 s⁻¹
kon [9]: 974000 M⁻¹ s⁻¹
binding result [10]: no binding (tested: 10 ug/ml)

B2: QD6/B09-57 DuetMab (bispecific antibody, human IgG1, kappa, lambda)
heavy 1: B1 heavy 1 with F55V
heavy 2: B1 heavy 2
light 1: B1 light 1 with K55E, S91F
light 2: B1 light 2
notes: also called monovalent bispecific EGFR/cMET DuetMAb QD6/B09
binding result [1]: no binding (tested: 10 ug/ml)
binding result [2]: no binding (tested: 10 ug/ml)
binding result [3]: no binding (tested: 10 ug/ml)
ELISA binding [4]: gave robust signals
ELISA binding [5]: gave robust signals
ELISA binding [6]: gave robust signals
internalization half-times [7]: 37.5 ± 10.6 min
Kd [8]: 6.2 nM
koff [8]: 0.00078 s⁻¹
kon [8]: 126000 M⁻¹ s⁻¹
Kd [9]: 2.2 nM
koff [9]: 0.00206 s⁻¹
kon [9]: 958000 M⁻¹ s⁻¹
binding result [10]: no binding (tested: 10 ug/ml)
